Laboratory results from the supplement of paper PMC12783771.
± gives the standard deviation of the averaged measurements.

B1: library; a variant is named by its letters at X, in order (parent)
chain: MNIQIGELAKRTACPVVTIRFYEQEGLLPPPGRSRGNFRLYGEEHVERLQFIRHCRSLDMPLSXVRTLLSYRKRPDQDCGEVXMLLDEHIRQVESRIGALLELXHHXVELREACSGARPAQSCGILQXLSXCVCXTRGTTAHXSD

Tests used:
[1] = variants of: B1; assay: sfGFP reporter fluorescence (15 h) (µM FITC); higher = higher leak; conditions: library round: Round 3; ligand: none
Procedure: (§1)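 Cell-free biosensing: 1 µL Echo-assembled CFE reactions with linear PbrR variant templates (5 nM) and pPbrR-sfGFP reporter, with 1 µM Pb, 30 µM Zn or no ligand; endpoint sfGFP fluorescence after 15 h at 30 °C calibrated as µM FITC. Round 3 ML-predicted PbrR mutants; up to 3 biological replicates.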

[2] = variants of: B1; assay: sfGFP reporter fluorescence (15 h) (µM FITC); higher = stronger transcriptional activation; conditions: library round: Round 3
Procedure: as §1

Variant | sfGFP reporter fluorescence [1] | sfGFP reporter fluorescence ([2]; ligand: 1 µM Pb) | sfGFP reporter fluorescence ([2]; ligand: 30 µM Zn)
LILCGAAC V16C H54C C55P E81A H106A | 0.0437 ± 0.0031 | 0.0414 ± 0.0022 | 0.0463 ± 0.0019
LCKCGAAP H54C C55P H106L | 0.0458 ± 0.0017 | 0.0424 ± 0.0028 | 0.0474 ± 0.0026
KFVLGDDP I90A H106A | 0.0469 ± 0.002 | 0.441 ± 0.013 | 0.0549 ± 0.0013
KFVLGDDT H106A | 0.0446 ± 0.0026 | 0.549 ± 0.023 | 0.095 ± 0.0055
KFVLGDDA H106A | 0.0507 ± 0.0013 | 0.541 ± 0.028 | 0.104 ± 0.0043
KNICMDDP M60L | 2.28 ± 0.1 | 3.14 ± 0.26 | 3.216 ± 0.027
KNKCIDDP M60L P61N | 1.99 ± 0.26 | 3.23 ± 0.31 | 2.88 ± 0.25
KFVLGDDR H106N | 0.0633 ± 0.0012 | 1.16 ± 0.054 | 0.2633 ± 0.0014
KFVLGDDP P61T H106A | 0.0442 ± 0.0014 | 0.0637 ± 0.0021 | 0.0488 ± 0.0034
LILCGAAP V16C H54C C55P H106A | 0.0465 ± 0.0014 | 0.0436 ± 0.0014 | 0.0502 ± 0.002
NNKCMDDP M60L P61N | 2.66 ± 0.24 | 3.55 ± 0.13 | 3.4 ± 0.14
DCVLGDDP V16C H54A | 0.0426 ± 0.0029 | 0.127 ± 0.0026 | 0.0484 ± 0.0029
DNRCMDAK | 1.49 ± 0.11 | 2.51 ± 0.053 | 2.61 ± 0.05
DNKCMDAK P61D | 0.53 ± 0.072 | 0.903 ± 0.12 | 2.24 ± 0.45
DNKCMDAK P61N | 2.25 ± 0.34 | 2.76 ± 0.33 | 3.11 ± 0.2
KNKCGADP M60L P61N | 2.59 ± 0.17 | 2.95 ± 0.29 | 2.51 ± 0.32
DCKVGDDP V82I L85M | 0.0458 ± 0.0022 | 0.329 ± 0.034 | 0.128 ± 0.0044
DNRCIDAK G124A | 0.395 ± 0.042 | 1.51 ± 0.12 | 2.32 ± 0.17
DNKLHAPW L101V | 0.06686 ± 0.00034 | 0.307 ± 0.028 | 1.11 ± 0.06
DNKCGADY M60L | 1.36 ± 0.092 | 1.92 ± 0.1 | 2.58 ± 0.11
DCKLGADY V16C H106A | 0.0446 ± 0.0041 | 0.232 ± 0.014 | 0.0501 ± 0.00089
LIKLGDDP V16C M60V E81A R111A | 0.0752 ± 0.0081 | 0.0783 ± 0.012 | 0.0505 ± 0.0042
KNRCMDDP P61N | 2.26 ± 0.13 | 2.97 ± 0.17 | 2.85 ± 0.064

Variant | sfGFP reporter fluorescence [1] | sfGFP reporter fluorescence ([2]; ligand: 1 µM Pb) | sfGFP reporter fluorescence ([2]; ligand: 30 µM Zn)
DNKCMDAA D87E | 0.936 ± 0.1 | 2.16 ± 0.15 | 2.28 ± 0.19
DNKCGADY G124A | 0.267 ± 0.013 | 1.31 ± 0.084 | 2.05 ± 0.041
DNKCGSAY | 0.873 ± 0.033 | 2.1 ± 0.24 | 2.35 ± 0.2
KIVLGDDR L62I | 0.0483 ± 0.0021 | 0.453 ± 0.018 | 0.09962 ± 0.00071
KIVCMDDP | 0.424 ± 0.064 | 1.96 ± 0.25 | 1.78 ± 0.059
LIKCGAAP H54C C55P H106L | 0.0448 ± 0.0034 | 0.0419 ± 0.0013 | 0.0486 ± 0.0017
DNKLGDDP | 0.0412 ± 0.002 | 0.0516 ± 0.0024 | 0.416 ± 0.055
LNKCGAAP H54C C55P H106L | 0.0467 ± 0.0041 | 0.044 ± 0.0032 | 0.0477 ± 0.0034
KITLGDDR H106A | 0.046 ± 0.001 | 0.452 ± 0.026 | 0.0503 ± 0.0012
KNMCMDDP P61N | 1.45 ± 0.17 | 2.43 ± 0.21 | 2.66 ± 0.22
KNKLGDAP P61N L62I V108E | 0.0795 ± 0.0049 | 0.275 ± 0.019 | 1.08 ± 0.098
DNRCMDAK D87E | 1.06 ± 0.069 | 2.46 ± 0.12 | 2.56 ± 0.13
TIVLGDDR H106A | 0.0524 ± 0.0029 | 0.448 ± 0.023 | 0.0673 ± 0.0027
DNKCIDAK M84A G124A | 0.548 ± 0.043 | 2.01 ± 0.13 | 2.75 ± 0.23
LILCGAAC V16C H54C C55P H106A | 0.0452 ± 0.0039 | 0.0421 ± 0.0021 | 0.0492 ± 0.0021
KNKCTDDP M60L P61N | 2.34 ± 0.2 | 3.48 ± 0.11 | 3.2 ± 0.18
DNRCIDDP M60L P61N | 0.808 ± 0.044 | 1.53 ± 0.025 | 2.29 ± 0.32
DNKCGAAP H54C C55P H106L | 0.04838 ± 0.00034 | 0.0446 ± 0.0014 | 0.0485 ± 0.0037
LCKCGAAP V16C H54C C55P H106L | 0.0465 ± 0.0012 | 0.04402 ± 0.00034 | 0.0492 ± 0.00085
KNKCSDDP M60L P61N | 2.09 ± 0.17 | 3.3 ± 0.17 | 3.18 ± 0.21
LIVCGAAP V16C H54C C55P H106A | 0.0452 ± 0.0017 | 0.0428 ± 0.0019 | 0.0456 ± 0.0037
LIVCGAAP V16C H54C C55P H106L | 0.0465 ± 0.0015 | 0.0427 ± 0.0018 | 0.0473 ± 0.0049
